# Measurements from IntAct's records for PubMed 22252508.
# B1: DNA mismatch repair protein Mlh1 (Homo sapiens), P40692 (parent)
# chain: MSFVAGVIRRLDETVVNRIAAGEVIQRPANAIKEMIENCLDAKSTSIQVIVKEGGLKLIQIQDNGTGIRKEDLDIVCERFTTSKLQSFEDLASISTYGFRGEALASISHVAHVTITTKTADGKCAYRASYSDGKLKAPPKPCAGNQGTQITVEDLFYNIATRRKALKNPSEEYGKILEVVGRYSVHNAGISFSVKKQGETVADVRTLPNASTVDNIRSIFGNAVSRELIEIGCEDKTLAFKMNGYISNANYSVKKCIFLLFINHRLVESTSLRKAIETVYAAYLPKNTHPFLYLSLEISPQNVDVNVHPTKHEVHFLHEESILERVQQHIESKLLGSNSSRMYFTQTLLPGLAGPSGEMVKSTTSLTSSSTSGSSDKVYAHQMVRTDSREQKLDAFLQPLSKPLSSQPQAIVTEDKTDISSGRARQQDEEMLELPAPAEVAAKNQSLEGDTTKGTSEMSEKRGPTSSNPRKRHREDSDVEMVEDDSRKEMTAACTPRRRIINLTSVLSLQEEINEQGHEVLREMLHNHSFVGCVNPQWALAQHQTKLYLLNTTKLSEELFYQILIYDFANFGVLRLSEPAPLFDLAMLALDSPESGWTEEDGPKEGLAEYIVEFLKKKAEMLADYFSLEIDEEGNLIGLPLLIDNYVPPLEGLPIFILRLATEVNWDEEKECFESLSKECAMFYSIRKQYISEESTLSGQQSEVPGSIPNSWKWTVEHIVYKALRSHILPPKHFTEDGNILQLANLPDLYKVFERC
# partner: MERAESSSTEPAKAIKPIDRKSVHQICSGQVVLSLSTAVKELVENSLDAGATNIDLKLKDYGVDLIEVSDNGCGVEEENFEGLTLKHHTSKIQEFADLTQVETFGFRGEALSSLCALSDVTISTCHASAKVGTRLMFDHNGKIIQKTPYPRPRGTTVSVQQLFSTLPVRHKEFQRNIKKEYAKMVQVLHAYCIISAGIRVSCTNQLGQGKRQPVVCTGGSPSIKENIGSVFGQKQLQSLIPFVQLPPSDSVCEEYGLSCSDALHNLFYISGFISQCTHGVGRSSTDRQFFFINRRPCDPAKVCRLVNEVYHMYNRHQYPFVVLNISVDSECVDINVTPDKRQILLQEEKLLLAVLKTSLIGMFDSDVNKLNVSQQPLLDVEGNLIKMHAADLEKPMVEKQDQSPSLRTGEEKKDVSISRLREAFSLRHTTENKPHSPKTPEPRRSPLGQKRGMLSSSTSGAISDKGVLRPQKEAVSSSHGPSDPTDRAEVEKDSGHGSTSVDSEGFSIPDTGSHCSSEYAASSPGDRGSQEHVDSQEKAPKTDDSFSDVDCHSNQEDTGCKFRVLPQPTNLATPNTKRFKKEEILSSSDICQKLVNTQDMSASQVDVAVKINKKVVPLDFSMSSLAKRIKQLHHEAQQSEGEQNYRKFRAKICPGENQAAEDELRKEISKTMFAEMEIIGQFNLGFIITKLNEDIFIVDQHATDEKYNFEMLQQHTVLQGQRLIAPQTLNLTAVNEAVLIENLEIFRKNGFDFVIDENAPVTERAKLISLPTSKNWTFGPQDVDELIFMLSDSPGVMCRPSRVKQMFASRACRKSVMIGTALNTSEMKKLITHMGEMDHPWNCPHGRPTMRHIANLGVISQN
# B2: Tumor protein 63 (Homo sapiens), Q9H3D4 (parent)
# chain: MNFETSRCATLQYCPDPYIQRFVETPAHFSWKESYYRSTMSQSTQTNEFLSPEVFQHIWDFLEQPICSVQPIDLNFVDEPSEDGATNKIEISMDCIRMQDSDLSDPMWPQYTNLGLLNSMDQQIQNGSSSTSPYNTDHAQNSVTAPSPYAQPSSTFDALSPSPAIPSNTDYPGPHSFDVSFQQSSTAKSATWTYSTELKKLYCQIAKTCPIQIKVMTPPPQGAVIRAMPVYKKAEHVTEVVKRCPNHELSREFNEGQIAPPSHLIRVEGNSHAQYVEDPITGRQSVLVPYEPPQVGTEFTTVLYNFMCNSSCVGGMNRRPILIIVTLETRDGQVLGRRCFEARICACPGRDRKADEDSIRKQQVSDSTKNGDGTKRPFRQNTHGIQMTSIKKRRSPDDELLYLPVRGRETYEMLLKIKESLELMQYLPQHTIETYRQQQQQQHQHLLQKQTSIQSPSSYGNSSPPLNKMNSMNKLPSVSQLINPQQRNALTPTTIPDGMGANIPMMGTHMPMAGDMNGLSPTQALPPPLSMPSTSHCTPPPPYPTDCSIVSFLARLGCSSCLDYFTTQGLTTIYQIEHYSMDDLASLKIPEQFRHAIWKGILDHRQLHEFSSPSHLLRTPSSASTVSVGSSETRGERVIDAVRFTLRQTISFPPRDEWNDFNFDMDARRNKQQRIKEEGE
# partner: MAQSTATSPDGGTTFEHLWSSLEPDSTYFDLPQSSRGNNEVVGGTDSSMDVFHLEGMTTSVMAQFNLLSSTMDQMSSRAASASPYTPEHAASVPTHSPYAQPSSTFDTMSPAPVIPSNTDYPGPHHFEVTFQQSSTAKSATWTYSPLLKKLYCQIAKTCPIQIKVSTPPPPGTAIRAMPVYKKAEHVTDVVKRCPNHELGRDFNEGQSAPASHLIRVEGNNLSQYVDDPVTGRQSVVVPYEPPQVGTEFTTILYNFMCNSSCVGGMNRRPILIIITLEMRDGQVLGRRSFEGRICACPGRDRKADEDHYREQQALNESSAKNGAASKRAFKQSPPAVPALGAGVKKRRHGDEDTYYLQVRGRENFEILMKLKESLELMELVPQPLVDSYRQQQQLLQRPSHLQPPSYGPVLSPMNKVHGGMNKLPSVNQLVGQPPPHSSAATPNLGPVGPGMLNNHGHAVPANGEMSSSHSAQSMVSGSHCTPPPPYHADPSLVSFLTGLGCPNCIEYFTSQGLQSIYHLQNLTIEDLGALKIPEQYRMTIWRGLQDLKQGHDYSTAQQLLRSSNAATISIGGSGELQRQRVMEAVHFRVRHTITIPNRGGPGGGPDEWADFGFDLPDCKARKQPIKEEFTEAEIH
# B3: Actin nucleation-promoting factor WAS (Homo sapiens), P42768 (parent)
# chain: MSGGPMGGRPGGRGAPAVQQNIPSTLLQDHENQRLFEMLGRKCLTLATAVVQLYLALPPGAEHWTKEHCGAVCFVKDNPQKSYFIRLYGLQAGRLLWEQELYSQLVYSTPTPFFHTFAGDDCQAGLNFADEDEAQAFRALVQEKIQKRNQRQSGDRRQLPPPPTPANEERRGGLPPLPLHPGGDQGGPPVGPLSLGLATVDIQNPDITSSRYRGLPAPGPSPADKKRSGKKKISKADIGAPSGFKHVSHVGWDPQNGFDVNNLDPDLRSLFSRAGISEAQLTDAETSKLIYDFIEDQGGLEAVRQEMRRQEPLPPPPPPSRGGNQLPRPPIVGGNKGRSGPLPPVPLGIAPPPPTPRGPPPPGRGGPPPPPPPATGRSGPLPPPPPGAGGPPMPPPPPPPPPPPSSGNGPAPPPLPPALVPAGGLAPGGGRGALLDQIRQGIQLNKTPGAPESSALQPPPQSSEGLVGALMHVMQKRSRAIHSSDEGEDQAGDEDEDDEWDD
# Variants of: B1
# Conditions: with pms2_human PMS2, P54278
row,effect of a mutation on the interaction,Variant
1,disrupting interaction strength,Y293D
2,with no effect,L259S
3,disrupting interaction strength,I68N
4,with no effect,H381Y
5,with no effect,Q149H
6,with no effect,N338S
7,disrupting interaction strength,I107R

# Variants of: B2
# Conditions: with p73_human TP73, O15350
row,effect of a mutation on the interaction,Variant
1,decreasing interaction strength,R594P
2,decreasing interaction strength,I549T
3,decreasing interaction strength,S580P
4,decreasing interaction strength,F565L

# Variants of: B3
# Conditions: with cdc42_human CDC42, P60953
# cdc42_human CDC42, P60953, sequence (P60953 whole entry, looked up): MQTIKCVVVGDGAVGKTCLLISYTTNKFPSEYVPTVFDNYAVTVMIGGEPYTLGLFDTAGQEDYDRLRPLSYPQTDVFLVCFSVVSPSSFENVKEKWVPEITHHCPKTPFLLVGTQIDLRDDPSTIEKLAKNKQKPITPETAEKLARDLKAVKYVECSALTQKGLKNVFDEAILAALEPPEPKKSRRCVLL
row,effect of a mutation on the interaction,Variant
1,with no effect,MSGGPMGGRPGGRGAPAVQQNIPSTLLQDHENQRLFEMLGRKCLTLATAVVQLYLALPPGAEHWTKEHCGAVCFVKDNPQKSYFIRLYGLQAGRLLWEQELYSQLVYSTPTPFFHTFAGDDCQAGLNFADKDEAQAFRALVQEKIQKRNQRQSGDRRQLPPPPTPANEERRGGLPPLPLHPGGDQGGPPVGPLSLGLATVDIQNPDITSSRYRGLPAPGPSPADKKRSGKKKISKADIGAPSGFKHVSHVGWDPQNGFDVNNLDPDLRSLFSRAGISEAQLTDAETSKLIYDFIEDQGGLEAVRQEMRRQEPLPPPPPPSRGGNQLPRPPIVGGNKGRSGPLPPVPLGIAPPPPTPRGPPPPGRGGPPPPPPPATGRSGPLPPPPPGAGGPPMPPPPPPPPPPPSSGNGPAPPPLPPALVPAGGLAPGGGRGALLDQIRQGIQLNKTPGAPESSALQPPPQSSEGLVGALMHVMQKRSRAIHSSDEGEDQAGDEDEDDEWDD [E131K]
2,with no effect,MSGGPMGGRPGGRGAPAVQQNIPSTLLQDHENQRLFEMLGGKCLTLATAVVQLYLALPPGAEHWTKEHCGAVCFVKDNPQKSYFIRLYGLQAGRLLWEQELYSQLVYSTPTPFFHTFAGDDCQAGLNFADEDEAQAFRALVQEKIQKRNQRQSGDRRQLPPPPTPANEERRGGLPPLPLHPGGDQGGPPVGPLSLGLATVDIQNPDITSSRYRGLPAPGPSPADKKRSGKKKISKADIGAPSGFKHVSHVGWDPQNGFDVNNLDPDLRSLFSRAGISEAQLTDAETSKLIYDFIEDQGGLEAVRQEMRRQEPLPPPPPPSRGGNQLPRPPIVGGNKGRSGPLPPVPLGIAPPPPTPRGPPPPGRGGPPPPPPPATGRSGPLPPPPPGAGGPPMPPPPPPPPPPPSSGNGPAPPPLPPALVPAGGLAPGGGRGALLDQIRQGIQLNKTPGAPESSALQPPPQSSEGLVGALMHVMQKRSRAIHSSDEGEDQAGDEDEDDEWDD [R41G]
3,decreasing interaction strength,MSGGPMGGRPGGRGAPAVQQNIPSTLLQDHENQRLFEMLGRKCLTLATAVVQLYLALPPGAEHWTKEHCGAVCFVKDNPQKSYFIRLYGLQAGRLLWEQELYSQLVYSTPTPFFHTFAGDDCQAGLNFADEDEAQAFRALVQEKIQKRNQRQSGDRRQLPPPPTPANEERRGGLPPLPLHPGGDQGGPPVGPLSLGLATVDIQNPDITSSRYRGLPAPGPSPADKKRSGKKKISKADIGAPSGFKHVSHVGWDPQNGFDVNNLDPDLRSLFSRAGISEAQLTDAETSKLIYDFTEDQGGLEAVRQEMRRQEPLPPPPPPSRGGNQLPRPPIVGGNKGRSGPLPPVPLGIAPPPPTPRGPPPPGRGGPPPPPPPATGRSGPLPPPPPGAGGPPMPPPPPPPPPPPSSGNGPAPPPLPPALVPAGGLAPGGGRGALLDQIRQGIQLNKTPGAPESSALQPPPQSSEGLVGALMHVMQKRSRAIHSSDEGEDQAGDEDEDDEWDD [I294T]
